Test results reported in PMC2172285.

Target: cortactin, endogenous in hE-CHO cells (hamster (endogenous in CHO))
Test: co-IP

- percent of total cellular E-cadherin found in the cortactin immunoprecipitates: 1 to 2%
Substance: human E-cadherin stably expressed in CHO cells (hE-CHO cells) (from UniProt P12830 155-882) (receptor)
